# Measurements published in paper PMC9482650, “Quantitative fragmentomics allow affinity mapping of interactomes” (Nature Communications, 2022).
# Where a chain is given by its changes, count along the chain named.
# B1: HPV30-E6, P36809 (peptide)
# chain: RHTTSTETAV
# B2: ATP2B4, P23634 (peptide)
# chain: SSLQSLETSV
# Target: HTRA2, O43464
# Test: holdup assay
# Parameters: key: below the threshold = too weak to quantify, mostly under pKd 3.1 to 4
# Conditions: plain residues with an end cap or a label only (N-terminal biotin on a linker: ttds)
# Sequence of HTRA2, O43464 (O43464 355-458): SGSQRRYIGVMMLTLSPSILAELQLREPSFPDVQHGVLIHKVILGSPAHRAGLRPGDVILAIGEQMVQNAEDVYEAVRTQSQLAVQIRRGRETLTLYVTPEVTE
row,Binder,pKd
1,B1,below the threshold
2,B2,below the threshold

# Target: PDLIM1, O00151
# Test: holdup assay
# Parameters: key: below the threshold = too weak to quantify, mostly under pKd 3.1 to 4
# Conditions: plain residues with an end cap or a label only (N-terminal biotin on a linker: ttds)
# Sequence of PDLIM1, O00151 (O00151 1-87): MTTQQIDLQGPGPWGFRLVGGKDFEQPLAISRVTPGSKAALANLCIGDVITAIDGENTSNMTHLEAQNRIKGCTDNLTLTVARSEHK
row,Binder,pKd
1,B1,below the threshold
2,B2,3.66

# Target: T1, SNTG2, Q9NY99
# T1 sequence (Q9NY99 68-166, limits assumed, looked up): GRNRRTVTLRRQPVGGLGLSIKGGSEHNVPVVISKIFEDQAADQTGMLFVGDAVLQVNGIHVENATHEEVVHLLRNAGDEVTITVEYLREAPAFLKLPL
# Test: holdup assay
# Parameters: key: below the threshold = too weak to quantify, mostly under pKd 3.1 to 4
# Conditions: plain residues with an end cap or a label only (N-terminal biotin on a linker: ttds)
row,Binder,pKd
1,B1,4.67
2,B2,4.89

# Target: MAST1, Q9Y2H9
# Test: holdup assay
# Parameters: key: below the threshold = too weak to quantify, mostly under pKd 3.1 to 4
# Conditions: plain residues with an end cap or a label only (N-terminal biotin on a linker: ttds)
# Sequence of MAST1, Q9Y2H9 (Q9Y2H9 962-1065): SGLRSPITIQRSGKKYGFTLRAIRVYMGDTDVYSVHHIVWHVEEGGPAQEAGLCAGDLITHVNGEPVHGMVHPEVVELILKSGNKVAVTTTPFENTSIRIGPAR
row,Binder,pKd
1,B1,4.66
2,B2,5.26

# Target: LNX1_1, Q8TBB1
# Test: holdup assay
# Parameters: key: below the threshold = too weak to quantify, mostly under pKd 3.1 to 4
# Conditions: plain residues with an end cap or a label only (N-terminal biotin on a linker: ttds)
# Sequence of LNX1_1, Q8TBB1 (Q8TBB1 261-371): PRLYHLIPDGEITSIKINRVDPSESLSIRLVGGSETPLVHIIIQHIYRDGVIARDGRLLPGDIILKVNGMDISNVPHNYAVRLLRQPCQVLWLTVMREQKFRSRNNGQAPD
row,Binder,pKd
1,B1,below the threshold
2,B2,3.71

# Target: MAGI2_5, Q86UL8
# Test: holdup assay
# Parameters: key: below the threshold = too weak to quantify, mostly under pKd 3.1 to 4
# Conditions: plain residues with an end cap or a label only (N-terminal biotin on a linker: ttds)
# Sequence of MAGI2_5, Q86UL8 (Q86UL8 915-1017): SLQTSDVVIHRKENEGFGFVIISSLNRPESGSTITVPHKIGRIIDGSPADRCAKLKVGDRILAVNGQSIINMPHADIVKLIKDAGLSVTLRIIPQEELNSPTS
row,Binder,pKd
1,B1,4.31
2,B2,4.6

# Target: ARHGEF12, Q9NZN5-2
# Test: holdup assay
# Parameters: key: below the threshold = too weak to quantify, mostly under pKd 3.1 to 4
# Conditions: plain residues with an end cap or a label only (N-terminal biotin on a linker: ttds)
# Sequence of ARHGEF12, Q9NZN5-2 (Q9NZN5 other isoform, or with tags, fused parts or gaps): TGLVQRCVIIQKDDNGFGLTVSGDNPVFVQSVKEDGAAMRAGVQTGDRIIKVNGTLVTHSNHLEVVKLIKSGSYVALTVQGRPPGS
row,Binder,pKd
1,B1,4.2
2,B2,4.4

# Target: GORASP1, Q9BQQ3
# Test: holdup assay
# Parameters: key: below the threshold = too weak to quantify, mostly under pKd 3.1 to 4
# Conditions: plain residues with an end cap or a label only (N-terminal biotin on a linker: ttds)
# Sequence of GORASP1, Q9BQQ3 (Q9BQQ3 1-208): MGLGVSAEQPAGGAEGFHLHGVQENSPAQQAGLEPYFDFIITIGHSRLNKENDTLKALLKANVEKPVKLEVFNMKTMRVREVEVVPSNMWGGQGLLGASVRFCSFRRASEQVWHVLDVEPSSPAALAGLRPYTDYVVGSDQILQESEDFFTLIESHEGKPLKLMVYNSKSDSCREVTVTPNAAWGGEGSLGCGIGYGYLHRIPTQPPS
row,Binder,pKd
1,B1,below the threshold
2,B2,below the threshold

# Target: NHERF2_2, Q15599
# Test: holdup assay
# Parameters: key: below the threshold = too weak to quantify, mostly under pKd 3.1 to 4
# Conditions: plain residues with an end cap or a label only (N-terminal biotin on a linker: ttds)
# Sequence of NHERF2_2, Q15599 (Q15599 142-238): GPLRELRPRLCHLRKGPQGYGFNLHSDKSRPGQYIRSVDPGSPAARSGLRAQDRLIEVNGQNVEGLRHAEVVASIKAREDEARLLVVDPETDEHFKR
row,Binder,pKd
1,B1,below the threshold
2,B2,3.84

# Target: PARD3_3, Q8TEW0
# Test: holdup assay
# Parameters: key: below the threshold = too weak to quantify, mostly under pKd 3.1 to 4
# Conditions: plain residues with an end cap or a label only (N-terminal biotin on a linker: ttds)
# Sequence of PARD3_3, Q8TEW0 (Q8TEW0 582-685): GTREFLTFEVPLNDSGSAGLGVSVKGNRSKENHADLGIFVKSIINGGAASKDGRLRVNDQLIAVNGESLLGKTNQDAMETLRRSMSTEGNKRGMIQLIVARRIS
row,Binder,pKd
1,B1,below the threshold
2,B2,3.87

# Target: T2, LIN7B, Q9HAP6
# T2 sequence (Q9HAP6 88-185, limits assumed, looked up): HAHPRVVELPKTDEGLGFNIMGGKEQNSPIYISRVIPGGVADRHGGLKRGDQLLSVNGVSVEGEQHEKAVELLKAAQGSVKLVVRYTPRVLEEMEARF
# Test: holdup assay
# Parameters: key: below the threshold = too weak to quantify, mostly under pKd 3.1 to 4
# Conditions: plain residues with an end cap or a label only (N-terminal biotin on a linker: ttds)
row,Binder,pKd
1,B1,3.71
2,B2,4.3

# Target: CASK, O14936
# Test: holdup assay
# Parameters: key: below the threshold = too weak to quantify, mostly under pKd 3.1 to 4
# Conditions: plain residues with an end cap or a label only (N-terminal biotin on a linker: ttds)
# Sequence of CASK, O14936 (O14936 487-570): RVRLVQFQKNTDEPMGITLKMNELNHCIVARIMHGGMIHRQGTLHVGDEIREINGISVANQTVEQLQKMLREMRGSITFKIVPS
row,Binder,pKd
1,B1,below the threshold
2,B2,below the threshold

# Target: SNX27, Q96L92
# Test: holdup assay
# Parameters: key: below the threshold = too weak to quantify, mostly under pKd 3.1 to 4
# Conditions: plain residues with an end cap or a label only (N-terminal biotin on a linker: ttds)
row,Binder,pKd
1,B1,5.64
2,B2,5.7

# Target: PTPN3, P26045
# Test: holdup assay
# Parameters: key: below the threshold = too weak to quantify, mostly under pKd 3.1 to 4
# Conditions: plain residues with an end cap or a label only (N-terminal biotin on a linker: ttds)
# Sequence of PTPN3, P26045 (P26045 505-587): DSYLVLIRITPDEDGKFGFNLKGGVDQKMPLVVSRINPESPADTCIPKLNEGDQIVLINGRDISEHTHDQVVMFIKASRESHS
row,Binder,pKd
1,B1,5.13
2,B2,5.12

# Target: Inadl_8, Q8NI35
# Test: holdup assay
# Parameters: key: below the threshold = too weak to quantify, mostly under pKd 3.1 to 4
# Conditions: plain residues with an end cap or a label only (N-terminal biotin on a linker: ttds)
# Sequence of Inadl_8, Q8NI35 (Q8NI35 1425-1530): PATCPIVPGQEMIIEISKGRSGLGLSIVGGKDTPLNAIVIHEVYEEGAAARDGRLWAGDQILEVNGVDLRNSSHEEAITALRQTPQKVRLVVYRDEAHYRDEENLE
row,Binder,pKd
1,B1,3.94
2,B2,3.54

# Target: TJP1_2, Q07157
# Test: holdup assay
# Parameters: key: below the threshold = too weak to quantify, mostly under pKd 3.1 to 4
# Conditions: plain residues with an end cap or a label only (N-terminal biotin on a linker: ttds)
# Sequence of TJP1_2, Q07157 (Q07157 181-274): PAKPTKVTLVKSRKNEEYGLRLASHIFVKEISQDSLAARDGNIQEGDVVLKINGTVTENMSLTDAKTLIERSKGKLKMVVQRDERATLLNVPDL
row,Binder,pKd
1,B1,below the threshold
2,B2,below the threshold

# Target: T3, DLG3_3, Q92796
# T3 sequence (Q92796 374-475, limits assumed, looked up): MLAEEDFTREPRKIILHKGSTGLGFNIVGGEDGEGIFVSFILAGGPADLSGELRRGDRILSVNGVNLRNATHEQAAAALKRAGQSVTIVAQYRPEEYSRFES
# Test: holdup assay
# Parameters: key: below the threshold = too weak to quantify, mostly under pKd 3.1 to 4
# Conditions: plain residues with an end cap or a label only (N-terminal biotin on a linker: ttds)
row,Binder,pKd
1,B1,4.66
2,B2,4.73

# Target: Inadl_1, Q8NI35
# Test: holdup assay
# Parameters: key: below the threshold = too weak to quantify, mostly under pKd 3.1 to 4
# Conditions: plain residues with an end cap or a label only (N-terminal biotin on a linker: ttds)
# Sequence of Inadl_1, Q8NI35 (Q8NI35 113-229): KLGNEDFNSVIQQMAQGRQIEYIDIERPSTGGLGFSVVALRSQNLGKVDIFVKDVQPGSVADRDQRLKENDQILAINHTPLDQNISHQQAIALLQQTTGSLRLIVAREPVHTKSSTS
row,Binder,pKd
1,B1,below the threshold
2,B2,below the threshold

# Target: T4, APBA1_1, Q02410
# T4 sequence (Q02410 651-752, limits assumed, looked up): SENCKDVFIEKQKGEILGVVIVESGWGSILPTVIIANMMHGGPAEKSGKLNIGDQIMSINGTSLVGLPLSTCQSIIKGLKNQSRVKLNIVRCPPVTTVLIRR
# Test: holdup assay
# Parameters: key: below the threshold = too weak to quantify, mostly under pKd 3.1 to 4
# Conditions: plain residues with an end cap or a label only (N-terminal biotin on a linker: ttds)
row,Binder,pKd
1,B1,below the threshold
2,B2,below the threshold

# Target: NHERF4_1, Q86UT5-2
# Test: holdup assay
# Parameters: key: below the threshold = too weak to quantify, mostly under pKd 3.1 to 4
# Conditions: plain residues with an end cap or a label only (N-terminal biotin on a linker: ttds)
# Sequence of NHERF4_1, Q86UT5-2 (Q86UT5 other isoform, or with tags, fused parts or gaps): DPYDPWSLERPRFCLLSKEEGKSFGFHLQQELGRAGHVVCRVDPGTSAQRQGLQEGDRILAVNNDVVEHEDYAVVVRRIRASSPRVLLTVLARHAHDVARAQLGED
row,Binder,pKd
1,B1,below the threshold
2,B2,below the threshold

# Target: SCRIB_2, Q14160
# Test: holdup assay
# Parameters: key: below the threshold = too weak to quantify, mostly under pKd 3.1 to 4
# Conditions: plain residues with an end cap or a label only (N-terminal biotin on a linker: ttds)
# Sequence of SCRIB_2, Q14160 (Q14160 857-960): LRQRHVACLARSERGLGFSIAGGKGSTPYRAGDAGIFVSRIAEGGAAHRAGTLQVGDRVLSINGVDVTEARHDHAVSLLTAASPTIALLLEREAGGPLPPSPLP
row,Binder,pKd
1,B1,5.11
2,B2,4.9

# Target: T5, GRIP1_2, Q9Y3R0
# T5 sequence (Q9Y3R0 145-248, limits assumed, looked up): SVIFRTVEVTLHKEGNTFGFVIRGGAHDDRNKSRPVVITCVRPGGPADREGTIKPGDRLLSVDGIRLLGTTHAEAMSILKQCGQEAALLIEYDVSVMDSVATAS
# Test: holdup assay
# Parameters: key: below the threshold = too weak to quantify, mostly under pKd 3.1 to 4
# Conditions: plain residues with an end cap or a label only (N-terminal biotin on a linker: ttds)
row,Binder,pKd
1,B1,3.78
2,B2,3.58

# Target: SCRIB_3, Q14160
# Test: holdup assay
# Parameters: key: below the threshold = too weak to quantify, mostly under pKd 3.1 to 4
# Conditions: plain residues with an end cap or a label only (N-terminal biotin on a linker: ttds)
# Sequence of SCRIB_3, Q14160 (Q14160 999-1103): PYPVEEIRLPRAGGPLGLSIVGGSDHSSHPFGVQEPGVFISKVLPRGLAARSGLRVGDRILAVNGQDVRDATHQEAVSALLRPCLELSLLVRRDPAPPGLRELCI
row,Binder,pKd
1,B1,5.02
2,B2,5.11

# Target: MAST2, Q6P0Q8
# Test: holdup assay
# Parameters: key: below the threshold = too weak to quantify, mostly under pKd 3.1 to 4
# Conditions: plain residues with an end cap or a label only (N-terminal biotin on a linker: ttds)
# Sequence of MAST2, Q6P0Q8 (Q6P0Q8 1099-1202): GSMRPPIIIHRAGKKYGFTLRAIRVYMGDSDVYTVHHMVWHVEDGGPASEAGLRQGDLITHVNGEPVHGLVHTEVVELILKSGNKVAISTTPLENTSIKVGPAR
row,Binder,pKd
1,B1,5.52
2,B2,5.53

# Target: MAGI2_3, Q86UL8
# Test: holdup assay
# Parameters: key: below the threshold = too weak to quantify, mostly under pKd 3.1 to 4
# Conditions: plain residues with an end cap or a label only (N-terminal biotin on a linker: ttds)
# Sequence of MAGI2_3, Q86UL8 (Q86UL8 600-682): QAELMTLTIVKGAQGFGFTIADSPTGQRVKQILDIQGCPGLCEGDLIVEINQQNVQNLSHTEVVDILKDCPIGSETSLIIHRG
row,Binder,pKd
1,B1,4.57
2,B2,4.2

# Target: T6, LIN7C, Q9NUP9
# T6 sequence (Q9NUP9 88-185, limits assumed, looked up): T2 sequence (Q9HAP6 88-185, limits assumed, looked up) with A2S, D13E, V35I, V40I, Q65H, S79K, R89K, A96S
# Test: holdup assay
# Parameters: key: below the threshold = too weak to quantify, mostly under pKd 3.1 to 4
# Conditions: plain residues with an end cap or a label only (N-terminal biotin on a linker: ttds)
row,Binder,pKd
1,B1,4.19
2,B2,4.8

# Target: SCRIB_1, Q14160
# Test: holdup assay
# Parameters: key: below the threshold = too weak to quantify, mostly under pKd 3.1 to 4
# Conditions: plain residues with an end cap or a label only (N-terminal biotin on a linker: ttds)
# Sequence of SCRIB_1, Q14160 (Q14160 718-814): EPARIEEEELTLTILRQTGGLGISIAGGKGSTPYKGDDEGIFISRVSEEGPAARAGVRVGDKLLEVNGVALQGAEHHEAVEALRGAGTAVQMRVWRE
row,Binder,pKd
1,B1,4.76
2,B2,5.03

# Target: T7, GRIP1_7, Q9Y3R0
# T7 sequence (Q9Y3R0 999-1096, limits assumed, looked up): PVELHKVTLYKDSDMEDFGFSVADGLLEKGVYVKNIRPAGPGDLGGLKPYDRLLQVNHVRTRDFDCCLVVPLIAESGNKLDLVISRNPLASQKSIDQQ
# Test: holdup assay
# Parameters: key: below the threshold = too weak to quantify, mostly under pKd 3.1 to 4
# Conditions: plain residues with an end cap or a label only (N-terminal biotin on a linker: ttds)
row,Binder,pKd
1,B1,below the threshold
2,B2,below the threshold

# Target: AHNAK1, Q09666
# Test: holdup assay
# Parameters: key: below the threshold = too weak to quantify, mostly under pKd 3.1 to 4
# Conditions: plain residues with an end cap or a label only (N-terminal biotin on a linker: ttds)
# Sequence of AHNAK1, Q09666 (Q09666 4-100): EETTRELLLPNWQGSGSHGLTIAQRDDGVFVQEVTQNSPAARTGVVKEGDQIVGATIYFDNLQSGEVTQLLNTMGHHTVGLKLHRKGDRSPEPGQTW
row,Binder,pKd
1,B1,3.72
2,B2,below the threshold

# Target: MAGI3_2, Q5TCQ9
# Test: holdup assay
# Parameters: key: below the threshold = too weak to quantify, mostly under pKd 3.1 to 4
# Conditions: plain residues with an end cap or a label only (N-terminal biotin on a linker: ttds)
# Sequence of MAGI3_2, Q5TCQ9 (Q5TCQ9 398-503): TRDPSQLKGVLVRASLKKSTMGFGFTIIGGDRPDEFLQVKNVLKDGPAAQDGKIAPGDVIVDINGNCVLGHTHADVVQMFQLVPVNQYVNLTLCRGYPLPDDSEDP
row,Binder,pKd
1,B1,5.36
2,B2,4.79

# Target: T8, TJP3_3, O95049
# T8 sequence (O95049 375-456, limits assumed, looked up): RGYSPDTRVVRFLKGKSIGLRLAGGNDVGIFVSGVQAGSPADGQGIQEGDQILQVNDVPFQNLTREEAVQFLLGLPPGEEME
# Test: holdup assay
# Parameters: key: below the threshold = too weak to quantify, mostly under pKd 3.1 to 4
# Conditions: plain residues with an end cap or a label only (N-terminal biotin on a linker: ttds)
row,Binder,pKd
1,B1,below the threshold
2,B2,3.71
